# Test system: K562 CRISPRi cells
# Assay: Constant region variant library pooled growth screen, K562
# Format: cell-based, human
# Details: sgRNA constant region variants
# From the text: We calculated relative activities for each targeting sequence:constant region pair by normalizing its phenotype to that of the targeting sequence paired with the unmodified constant region, identifying 409 constant region variants that on average conferred intermediate activity (0.1-0.9, FIG. 5B). Ten variants selected for individual evaluation also mediated intermediate levels of mRNA knockdown (FIG. 6B). Mapping the activities of constant region variants with single base substitutions onto the structure recapitulated known relationships between constant region structure and function (FIG. 5C).
# The sequences in the library of modified constant regions were derived from the sgRNA (F+E) optimized sequence (23) modified to include a BlpI site (15). Each modified constant region was paired with 36 sgRNA targeting sequences (3 sgRNAs targeting each of 10 essential genes and six non-targeting negative control sgRNAs). The cloning strategy (described below) allowed the mutation of most positions in the sgRNA constant region. A variety of modifications were made, including substitutions of all single bases not in the BlpI restriction site (which is used for cloning), double substitutions including all substitutions at base-paired position pairs not before or in the BlpI site, and a variety of triple, quadruple, and sextuple substitutions, including base-pair-preserving substitutions at adjacent base-pairs.
# The library was ordered and cloned in two parts. One part consisted of ˜100 modifications to the eight bases upstream of the BlpI restriction site. Constant region variants with mutations in this section were paired with each of the 36 targeting sequences, ordered as a pooled oligonucleotide library (Twist Biosciences), and cloned into pCRISPRia-v2 as described above. The second part consisted of ˜900 modifications to the 71 bases downstream of the BlpI restriction site. This part was cloned in two steps. First, all 36 targeting sequences were individually cloned into pCRISPRia-v2 as described above. The vectors were then pooled at an equimolar ratio and digested with BlpI (NEB) and XhoI (NEB). The modified constant region variants were ordered as a pooled oligonucleotide library (Twist Biosciences), PCR amplified with Phusion polymerase (NEB), digested with BlpI (NEB) and XhoI (NEB), and ligated into the digested vector pool, in a manner identical to previously published protocols and as described above, except for the different restriction enzymes.
# Screens with the compact mismatched sgRNA library and the constant region library were conducted largely as described above, with smaller modifications during the screening procedure and an updated sequencing library preparation protocol. Briefly, the libraries were transduced in duplicate into K562 CRISPRi (both libraries) or HeLa CRISPRi cells (compact mismatched sgRNA library) as described above. K562 replicates were maintained separately in 0.15 to 0.3 L of RPMI-1640 in 0.3 L spinner flasks for the course of the screen. HeLa replicates were maintained in sets of ten 15-cm plates. Cells were selected with puromycin as described above (K562: 1 day of 0.75 μg/mL and 1 day of 0.85 μg/mL; HeLa: 2 days of 0.8 μg/mL and 1 day of 1 μg/mL). The remainder of the screen was carried out at >1000× library coverage (K562 compact mismatched sgRNA library: >2000×; HeLa compact mismatched sgRNA library: >1000×; K562 constant region library: >2000×). Multiple samples were harvested after 4 to 8 days of growth. For the drug screen, 10 μM lovastatin (ApexBio) or an equivalent volume of DMSO (vehicle) was added to flasks at t=0, and 3 days later cells were pelleted and re-suspended in fresh medium. Lovastatin (12 μM) or DMSO was again added after 5 and 9 days of growth, with media exchanges 3 days after drug supplementation. Multiple samples were harvested after 4 to 8 days for the K562 and HeLa growth screens. […]
# [1] = activity relative to the un-modified constant region cr995
molecule,measurement,setting,value
"cr284 (nucleic acid, listed as DNA, chemistry not fully specified) guide: GTTTAAGAGCTAAGCTGGAAACAGCATAGCAAGTTTAAATAAGGCTAGTCCGTTATCAACTTGAGAAAGTGGCACCAAGTTGGTGCT",Mean relative activity,[1],0.9497
"cr983 (nucleic acid, listed as DNA, chemistry not fully specified) guide: GTTTAAGAGCTAAGCTGGAAACAGCATAGCAAGTTTAAATAAGGCTAGTCCGTTATCAACTTGAAAAAGTGGTACCGAGTCGGTGCT",Mean relative activity,[1],0.9491
"cr718 (nucleic acid, listed as DNA, chemistry not fully specified) guide: GTTTAAGAGCTAAGCTGGAAACAGCATAGCAAGTTTAAATAAGGCTAGTCCGTTATCATCTTGAAAAAGAGGCCCCGAGTCGGGGCT",Mean relative activity,[1],0.9447
"cr553 (nucleic acid, listed as DNA, chemistry not fully specified) guide: GTTTAAGAGCTAAGCTGGAAACAGCATAGCAAGTTTAAATAAGGCTGGTCCGTTATCAACTTGATAAAGTGGCACCGAGTCGGTGCT",Mean relative activity,[1],0.9385
"cr529 (nucleic acid, listed as DNA, chemistry not fully specified) guide: GTTTAAGAGCTAAGCTGGAAACAGCATAGCAAGTTTAAATAAGGCTAGTCCGTTATCAACTTGAAAAAGTGGCACTGAGTCAGTGCT",Mean relative activity,[1],0.9488
"cr142 (nucleic acid, listed as DNA, chemistry not fully specified) guide: GTTTAAGAGCTAAGCTGGAAACAGCATAGCAAGTTTAAATAAGGCTAGTCCGTTATCAACTTGAAAAAGTGGCACCTAGTAGGTGCT",Mean relative activity,[1],0.9406
"cr612 (nucleic acid, listed as DNA, chemistry not fully specified) guide: GTTTAAGAGCTAAGCTGGATACAGCATAGCAAGTTTAAATAAGGCTAGTCCGTTATCAACTTGAAAAAGTGGCACCGAGTCGGTGCT",Mean relative activity,"activity relative to the original, un-modified constant region cr995",1.064
"cr703 (nucleic acid, listed as DNA, chemistry not fully specified) guide: GTTTAAGAGCTAAGCTGGAAACAGCATAGCAAGTTTAAATAAGGCTAGTCCGTTATCAACTTGAGGAAGTGGCACCGAGTCGGTGCT",Mean relative activity,[1],0.9472
"cr285 (nucleic acid, listed as DNA, chemistry not fully specified) guide: GTTTAAGAGCTAAGCTGGAAAAAGCATAGCAAGTTTAAATAAGGCTAGTCCGTTATCAACTTGAAAAAGTGGCACCGAGTCGGTGCT",Mean relative activity,[1],0.9449
"cr253 (nucleic acid, listed as DNA, chemistry not fully specified) guide: GTTTAAGAGCTAAGCTGGAAACAGCATAGCAAGTTTAAATAAGGCTAGTCCGTTATCAGCCTGAAAAGGCGGCACCTAGTAGGTGCT",Mean relative activity,[1],0.9384
"cr908 (nucleic acid, listed as DNA, chemistry not fully specified) guide: GTTTAAGAGCTAAGCTGGAAACAGCATAGCAAGTTTAAATAAGGCTAGTCCGTTATCAACTTGAGAAAGTGGCATCGAGTCGATGCT",Mean relative activity,[1],0.9455
"cr231 (nucleic acid, listed as DNA, chemistry not fully specified) guide: GTTTAAGAGCTAAGCTGGAAACAGCATAGCAAGTTTAAATAAGGCTAGACCGTTATCAACTTGAGAAAGTGGCACCGAGTCGGTGCT",Mean relative activity,[1],0.9485

# Source: patent US20220259593A1, “CONTROL OF MAMMALIAN GENE DOSAGE USING CRISPR” (The Regents of the University of California, priority 2019, published 2022)
